Assay results reported in PMC9430671.

What was measured:
[1] = biological target: LysP7951 full-length product (FLP), produced from the wild-type lysP7951 gene (Streptococcus thermophilus phage P7951); experiment: native MS; purified LysP7951 complex (co-produced, co-purified) in 150 mM ammonium acetate, about 10 μM, nano-ESI Q-TOF, positive mode, collision energy 0 V (15 and 100 V for dissociation)
[2] = biological target: LysP7951 full-length product (FLP), produced from the wild-type lysP7951 gene (Streptococcus thermophilus phage P7951); experiment: SEC; analytical gel filtration (Superose 6 10/300 GL, calibrated) of single purified preparations; protein buffer (50 mM HEPES, 500 mM NaCl, 1% glycerol, pH 7), 0.4 mL/min; apparent molecular masses from elution volumes
[3] = biological target: LysP7951_(209-310) (Streptococcus thermophilus phage P7951); experiment: SAXS; LysP7951 CTP at 1.00, 1.85, 2.70 mg/mL in protein buffer, 20°C, BM29 beamline ESRF; molecular mass estimated from the scattering data
[4] = biological target: LysP7951_(209-310) (Streptococcus thermophilus phage P7951); experiment: SEC; analytical gel filtration (Superose 6 10/300 GL, calibrated) of single purified preparations; protein buffer (50 mM HEPES, 500 mM NaCl, 1% glycerol, pH 7), 0.4 mL/min; apparent molecular masses from elution volumes

| stoichiometry N (CTP subunits per FLP) [1] | stoichiometry N (CTP subunits per FLP) [2] | stoichiometry N [3] [subunits] | stoichiometry N [4] [subunits] | Substance |
| --- | --- | --- | --- | --- |
| 5 | 4 |  |  | LysP7951 C-terminal product (CTP), produced from the internal translation start site of the wild-type lysP7951 gene (domain or fragment) |
|  |  | 6 to 7 | 7 | LysP7951_(209-310) (domain or fragment) |
